{
  "source": "the DeepSol protein solubility set",
  "data": [
    {"test": "soluble on expression in E. coli; label from the status in PepcDB or PDB records", "values": [
      {"sequence": "MGSDKIHHHHHHMAEVFHERLKSPIPTRELARRSRELQAVMKKENIDCILAQNITQYMGGCNRWLTDTTAENHYPQSSFLTKDGDIGYIACSGPPLDLYPPSHLLRIGKPWAAAPYFSVFNFTWDWEGRLFVKWVQENNVQKVGIAGMEMIMWNYYNYIAEKLPGVEIVDASSLFDEIRAVKSEDEIKFLEKSAALQDKVMGYLPALIQPGVREYEVRAKIMQLVTDHGGEEMIVIMGSAPRGEKFSLLPSFFQNRELQTGDELYVKLQCSGPGGLFTTVGRMFSIGCEPSGALEQGWREAAAAQEKLAGLLQVGADPQVIFGQYNAYLESKGYNQETGLFVYGQGYDHIERPSIQPGETMKLAKDMCLAANTSLISAERTVYCADSFILKPSGPQKLHRTPLTIFRT", "soluble on expression in E. coli": "not soluble"},
      {"sequence": "MLRIIVIGTTGSGKTTFARALAQRLGLPHGEQDAWNHEANWQMAPLGRFRARVDTFTSQPAWVMDGNYGKARDLGWARADTLIWLDFPAWLVYSRLVRRTLWRVLTQQELWNGNRETWRGALLDPEGPLRWFWKTHWRRRQETPALAAEFPHLRLVRLRSPGEARRFLAAVGRGHPTALEHHHHHH", "soluble on expression in E. coli": "not soluble"},
      {"sequence": "MIVDFYFDFLSPFSYLANQRLSKLAQDYGLTIRYNAIDLARVKIAIGNVGPSNRDLKVKLDYLKVDLQRWAQLYGIPLVFPANYNSRRMNIGFYYSGAEAQAAAYVNVVFNAVWGEGIAPDLESLPALVSEKLGWDRSAFEHFLSSNAATERYDEQTHAAIERKVFGVPTMFLGDEMWWGNDRLFMLESAMGRLCRQNADLSS", "soluble on expression in E. coli": "soluble"},
      {"sequence": "GKDFSYWVKMTTGYSDNKIKEAGFQATPGFDDIVRGERSDRGVWGYECIGMFRTYQDIEEYFAVNKITSYLGNTKDNIHPGMLIYRDVRGQRNADGTYGEADGVIDQNDYVKISN", "soluble on expression in E. coli": "not soluble"},
      {"sequence": "MEKSAPSIILNHWCVTWQGHHFLCRNLSNIKILNRRNGYTTLDLPLTLGDLTQYRLAHGLSENLMALSPYSWTIPFLVSSSETPGIELLPKVINDFGTPLSLAIKTNLPSIPAHQLLFYIIFLRPSPLTSMSCYARPLSLASTPSLEHHHHHH", "soluble on expression in E. coli": "soluble"},
      {"sequence": "SLQCLRFPGLALPHTRAPSPLGPTRDPVATFLETCREPGSQPAGPASLRAEYLPPSVASIKVSAELLRAALKDGHSGVPLCCATLQWLLAENAAVDVVRARALSSIQGVAPDGANVHLIVREVAMTDLCPAGPIQAVEIQVESSSLADICRAHHAVVGRMQTMVTEQAAQGSSAPDLRVQYLRQIHANHETLLREVQTLRDRLCTEDEASSCATAQRLLQVYRQLRHPSLILL", "soluble on expression in E. coli": "soluble"},
      {"sequence": "MLETKDLNLFLGNKHVLKNISLSIPVRGEIIGIMGPNGAGKSSLIKSLIGEFNATGTKLLYNKPIQQQLQHITYIPQKAHIDLDFPISVEQVILSGCYKEIGWFRRPNKSARDKLKQLLSDLELESLRHRQISELSGGQLQRVLVARALMSESEVYFLDEPFVGIDFSSEKLIMTKIENLKQQGKLILIIHHDLSKAKQYFDRIILLNQTLRYFGDSEEAMSVTRLNETFMSSTDCSDPSQRSNITC", "soluble on expression in E. coli": "not soluble"},
      {"sequence": "MKDNERRILLGRVVGGFGLRGEIKIESWTEPRDAIFRYQPWLLRSPTGTESMLNGARGYETGKRLIATFPGINDRNGVEAICGTEIYVPRSALPPPHPDEYYWVDLEGLQVHTLEGVVLGSVSHLFSNGANDVIVIHGERERLIPFVQPDYVKSVDFEAERIVVDWDPEFLEHHHHHH", "soluble on expression in E. coli": "soluble"},
      {"sequence": "AIAANQWERFVWLALDAPDTIVERAPLVIQVAWLEDTQLRLWEPAAREPLKRGDDAALRTYLRDAAECPWDPATDPSLVREFLLSRAVDCAFRDELAEHAGCVVDEELDTDFIAETMALSEELVRADDKKLPLETQDLDPASFDLLRAELALPAASAREVLRAGAHWAITRWPPREQWLPPCSRADAPATTALAATGGVPSEAQATPEPMCTETTVSDATCALPSGVYAQLQRIGRQLHNEELLYTQHLLNAALERAQTMTANPRTEARLGRVGH", "soluble on expression in E. coli": "soluble"},
      {"sequence": "MGSDKIHHHHHHMGKTLAEKIFSEHVGRDVKAGEIVLARVDIAMAQDGTGPLMINEFRELGFKEVKVPKAFLFIDHASPSPRKELSNSQKMMREFGKEMGVKVFDAGDGISHQILAEKYVKPGDLVAGADSHTCTAGGLGAFGTGMGSTDVAIIFGLGQNWFKVPETIKVVVNGKLQDGVYAKDIILEIARILGSDGATYKALEFHGSCIENMNVEDRLTISNMAVEVGAKAGLMPSDEKTREFLKKMGREEDFRELKADPDAVYETEIEIDATTLEPLVSLPHYVDNVRKVSEVEKEKIKIDQVFIGTCTNGRLQDLEIALKILEKHGKHPDVRLIVGPASRKVYMDALEKGIIKKFVELGAAVIPPGCGPCVGIHMGVLGDGERVLSTQNRNFKGRMGNPNAEIYLASPATAAATAVTGYITDPRRFI", "soluble on expression in E. coli": "not soluble"},
      {"sequence": "MGSDKIHHHHHHACTGSSQKEKPACVNTPVEPFTGLPVFDLQEQYPEKEIILQDIADVRYVVLETGDSSLVGIRPILMTDSFLVTVNKKSDVIFFDKSGKYLHSFNHTSMSGEEYGDIVSGYCIDEKAREIFIYDGLQSRIQVYGYGGAYRRTLKLPQNRMFASSIFEYDENFLFGEDYRLVDSQIGKYPVNKTPYYKISKKDGKLTSIPITVKERIRDGLSYTVGDGAFGYVSLLMSPVARFGSDILIADYSLDTAYVYRDDHLIPLTVRRNHTSENNIPILATVDVMTGRYLLWYTIVKDIDVKNNRVSDPVSYLYDRFTNEYCRVDLVNRDVVSATNIPAFQMRLSANYHVVPENYAIQYYPAEELIELNGQGKLKGELKEIASKLNDEDNPVLLIAKFKE", "soluble on expression in E. coli": "not soluble"},
      {"sequence": "MNYIQLQRFNMSKVASIVDVLQGKVAIGETVTVRGWVRTRRDSKAGLSFLAVYDGSCFDPIQAIINNDIENYESEILRLTTGCSVIVTGKVVESPAEGQAVELQAEKVEVTGFVEDPDTYPMAAKRHSIEYLREVAHLRPRTNIIGAVARVRHCLSQAIHRFFHEQGFYWVATPLITASDTEGAGEMFRVSTLDLENLPRSENGKVDFSQDFFGKESFLTVSGQLNGETYACALSKIYTFGPTFRAENSNTTRHLAEFWMVEPEVAFATLADNAKLAEDMLKYVFRAVLAERKDDLQFFEKHVDKDVITRLENFVNSDFAQIDYTDAIDVLLKSGKKFEFPVSWGIDLSSEHERFLAEEYFKSPVVVKNYPKDIKAFYMRLNDDEKTVAAMDVLAPGIGEIIGGSQREERLEVLDKRMEEMGLNPDDYWWYRDLRKYGSVPHSGFGLGFERLIVYVTGVQNIRDVIPFPRAPRNANFLEHHHHHH", "soluble on expression in E. coli": "soluble"},
      {"sequence": "MVEVVRNKRPPRGLVPRLRRALAALMEELGVGDKGVTVILTGDRRLRALKREWWGEAGKAYRKSVGPFGPGLPRPRAKCQPLIISTWRPHF", "soluble on expression in E. coli": "soluble"},
      {"sequence": "MSLEQTVDIEVQGIRGFRAVRNTDLNVNLINKEEMDGSERYQHLVTKAVDRGLRVFGYYESSVRFERKQRQGKRDLLIAHVTPGEPTKIAGTDVQIEGEAAQDENFNALRKNLPKDGVLVEHQTYDDYKTAISRLALNRGYFDGNFKISRLEISPETHQAWWRMLFDSGVRYHYGNITFSHSQIRDDYLNNILNIKSGDPYLMNNLSDLTSDFPSSNWFSSVLVQPNVNHKSKTVDVEIILYPRKKNAMELGVGFSTDGGVHGQIGWTKPWINSRGHSLRSNLYLSAPKQTLEATYRMPLLKNPLNYYYDFAVGWEGEKENDTNTRVLTLSALRYWNNAHGWQYFGGLRMRYDSFTQADITDKTLLLYPTVGFTRTRLRGGSFATWGDVQKITFDLSKRIWLSESSFIKVQASSAWVRTYAENHRVVARAEIGYLHTKGIEKIPPTLRFFAGGDRSVRGYGYKKIAPKNRNGKLVGGSRLLTTSLEYQYQVYPNWWAATFADSGLAADNYTAKELRYGTGVGVRWASPVGAIKFDIATPIRDKDNSKNIQFYIGLGTEIEGHHHHHH", "soluble on expression in E. coli": "not soluble"},
      {"sequence": "MGSSHHHHHHSSGLVPRGSHMTPKDDEFYQQWQLKYPKLILREASSVSEELHKEVQEAFLTLHKHGCLFRDLVRIQGKDLLTPVSRILIGNPGCTYKYLNTRLFTVPWPVKGSNIKHTEAEIAAACETFLKLNDYLQIETIQALEELAAKEKANEDAVPLCMSADFPRVGMGSSYNGQDEVDIKSRAAYNVTLLNFMDPQKMPYLKEEPYFGMGKMAVSWHHDENLVDRSAVAVYSYSCEGPEEESEDDSHLEGRDPDIWHVGFKISWDIETPGLAIPLHQGDCYFMLDDLNATHQHCVLAGSQPRFSSTHRVAECSTGTLDYILQRCQLALQNVCDDVDNDDVSLKSFEPAVLKQGEEIHNEVEFEWLRQFWFQGNRYRKCTDWWCQPMAQLEALWKKMEGVTNAVLHEVKREGLPVEQRNEILTAILASLTARQNLRREWHARCQSRIARTLPADQKPECRPYWEKDDASMPLPFDLTDIVSELRGQLLEAKP", "soluble on expression in E. coli": "soluble"}
    ]}
  ]
}
